Results reported in patent US20190135915A1 (SYNTIMMUNE, published 2019).
Values joined by “and” are separate entries in the source; they are usually repeats but may differ in a detail not shown here. Identical values can stand only once.

Tests used:
[1] = biological target: T1, monomeric His-tagged hFcRn (human, UniProt P55899 24-297; P61769 21-119, limits assumed); assay: SPR Biacore 3000, antibody amine-coupled to CM5, His-tagged hFcRn analyte, pH 6.0, 25 C, 1:1 Langmuir; pH 6.0
T1 construct: also called human FcRn; not shown: His tag
Experimental: (§1) The coupling was performed by injecting 2 μg/ml of each protein into 10 mM sodium acetate, pH 4.5 (GE Healthcare), using the amine coupling kit (GE Healthcare). HBS-P buffer pH 7.4 (0.01 M HEPES, 0.15 M NaCl, 0.005% surfactant P20) or phosphate buffer pH 6.0 (67 mM phosphate buffer, 0.15 M NaCl, 0.005% Tween 20) were used as running buffer and dilution buffer. […] All SPR experiments were conducted at 25° C. with a flow rate of 40 μl/min Binding data were zero-adjusted, and the reference cell value subtracted. The Langmuir 1:1 ligand binding model provided by the BIAevaluation software (version 4.1) was used to determine the binding kinetics. The closeness of the fit is described by the statistical value χ².
(§2) The kinetic rate constants were obtained using a simple first-order (1:1) Langmuir bimolecular interaction model. The kinetic values represent the average of duplicates. The χ² (chi-square) values represent the fit to the binding model used.

[2] = biological target: T2, recombinant human FcRn (Sino Biological Inc. Cat. No. CT009-H08H) (human, UniProt P55899 24-297; P61769 21-119); assay: competition ELISA, pH 7.4; competitor biotinylated parent murine antibody; captured recombinant human FcRn; HEK-expressed IgG4
T2 construct: also called immobilized FcRn
Experimental: (§3) The IgG4 antibodies were tested for antigen binding in a competition ELISA at pH 6.0 and pH 7.4. A Nunc Immuno MaxiSorp 96 well flat bottom microtitre plate (Fisher, cat. no. DIS-971-030J) was pre-coated with 1 μg/ml of an FcRn antibody specific for an IgG-binding epitope distinct from the albumin-binding region overnight at pH 7.4. The following day, 1 μg/ml recombinant human FcRn (Sino Biological Inc. cat. no. CT009-H08H) diluted in PBS pH 7.4 was added to the wells and incubated for 1 hour at 37° C. After washing the plates 3× with PBST pH 7.4, the plates were blocked with PBSM pH 7.4 for 1 hour at 37° C. From this point onwards, all wash and incubation steps were performed at the chosen assay pH (pH 6.0 or 7.4). […] The reaction was stopped with 3 M HCl, absorbance read at 450 nm on a Dynex Technologies MRX TC II plate reader and the binding curves plotted.
(§4) NS0 produced humanized affinity matured IgGs were used in all assays other than G50_C10/Vκ3), which was purified from transiently expressing HEK cells.

[3] = biological target: T1, monomeric His-tagged hFcRn; assay: SPR Biacore 3000, antibody amine-coupled to CM5, His-tagged hFcRn analyte, pH 6.0, 25 C, 1:1 Langmuir
Experimental: as §1

[4] = biological target: T3, FcRn (analyte in the Biacore T200 study) (human, UniProt P55899 24-297; P61769 21-119, limits assumed); assay: SPR Biacore T200, antibody amine-coupled to CM5, FcRn analyte, 1:1 model; pH not stated
T3 construct: also called human FcRn
Experimental: (§5) Antibodies were immobilized onto a Series S CM5 sensor chip surface using standard amine coupling chemistry and analyte (FcRn) flowed over the surface. A 2-fold dilution range was selected from 50-0.01 nM FcRn. The association phase of FcRn analyte was monitored for 450 seconds, and dissociation was initially measured for either 250 or 2500 seconds, at 40 μl/min Fc1 was a reference channel and was subtracted from other flow cells to correct for non-specific binding. […] Kinetic values are based on a 1:1 binding model (Table 5).

[5] = biological target: T2, recombinant human FcRn (Sino Biological …); assay: competition ELISA, pH 6.0: test IgG4 (from transient HEK per paragraph 152) titrated against fixed biotinylated murine parent antibody on recombinant human FcRn; streptavidin-HRP/TMB, OD450 [top panel]
Experimental: as §3, §4

[6] = biological target: T3, FcRn (analyte in the Biacore T200 study); assay: SPR Biacore T200, antibody immobilized, FcRn analyte
Experimental: as §5

[7] = biological target: T2, recombinant human FcRn (Sino Biological …); assay: competition ELISA, pH 6.0; competitor biotinylated parent murine antibody; captured recombinant human FcRn; HEK-expressed IgG4
Experimental: as §3, §4

[8] = biological target: T2, recombinant human FcRn (Sino Biological …); assay: as above; remark: listed apart in the source
Experimental: as §3

[9] = biological target: T2, recombinant human FcRn (Sino Biological …); assay: competition ELISA, pH 7.4; competitor biotinylated parent murine antibody; captured recombinant human FcRn; HEK-expressed IgG4; remark: listed apart in the source
Experimental: as §3

[10] = biological target: T1, monomeric His-tagged hFcRn; assay: SPR Biacore 3000, antibody amine-coupled to CM5, His-tagged hFcRn analyte, pH 7.4, 25 C, 1:1 Langmuir
Experimental: as §1, §2

[11] = biological target: T2, recombinant human FcRn (Sino Biological …); assay: competition ELISA, pH 7.4: test IgG4 (from transient HEK per paragraph 152) titrated against fixed biotinylated murine parent antibody on recombinant human FcRn; streptavidin-HRP/TMB, OD450 [top panel]
Experimental: as §3, §4

[12] = biological target: T3, FcRn (analyte in the Biacore T200 study); assay: SPR Biacore T200, antibody amine-coupled to CM5, FcRn analyte, 1:1 model; chip with the three best variants (repeat run, dissociation 4500 s per paragraph 156); pH not stated
Experimental: as §5

[13] = biological target: T1, monomeric His-tagged hFcRn; assay: SPR Biacore 3000, antibody amine-coupled to CM5, His-tagged hFcRn analyte, pH 7.4, 25 C, 1:1 Langmuir; pH 7.4
Experimental: as §1, §2

T2 sequence (P55899 24-297 limits assumed, chain 1 of 2): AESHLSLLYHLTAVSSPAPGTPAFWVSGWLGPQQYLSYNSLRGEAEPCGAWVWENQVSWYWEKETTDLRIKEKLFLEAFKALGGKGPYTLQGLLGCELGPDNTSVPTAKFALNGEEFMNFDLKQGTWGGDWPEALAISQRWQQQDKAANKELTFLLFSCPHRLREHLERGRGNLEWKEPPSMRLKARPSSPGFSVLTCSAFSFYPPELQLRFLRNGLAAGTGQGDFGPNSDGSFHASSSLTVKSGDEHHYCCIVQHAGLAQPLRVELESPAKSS
T2 sequence (P61769 21-119 limits assumed, chain 2 of 2): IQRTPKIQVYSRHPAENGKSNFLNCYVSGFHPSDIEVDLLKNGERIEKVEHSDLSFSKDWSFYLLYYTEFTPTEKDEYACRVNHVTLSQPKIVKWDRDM
T1 sequence (P55899 24-297 limits assumed, chain 1 of 2): as the sequence (P55899 24-297 limits assumed, chain 1 of 2) above
T1 sequence (P61769 21-119 limits assumed, chain 2 of 2): as the sequence (P61769 21-119 limits assumed, chain 2 of 2) above
T3 sequence (P55899 24-297 limits assumed, chain 1 of 2): as the sequence (P55899 24-297 limits assumed, chain 1 of 2) above
T3 sequence (P61769 21-119 limits assumed, chain 2 of 2): as the sequence (P61769 21-119 limits assumed, chain 2 of 2) above

B1: G50_C10/Vκ3 (antibody, V domains shown)
VH: EVQLVESGGGLVKPGGSLKLSCAASGFTFSDYGMHWVRQAPGKGLEWVAYISSGSSTIYYADTVKGRFTISRDNAKNTLYLQMNSLRAEDTAMYYCARLESTTAVGDYWGQGTSVTVSS
VL: DIVMTQSPDSLSASVGDRVTITCKASQSVSNDVAWYQQKPGQPPKLLIYYASNRYTGVPDRFSGSGYGTDFTLTISSLQAEDVAVYFCQQDYSSLTFGQGTKLEIK
notes: Bivalent IgG4 with S241P, human kappa; also called SYNT002-16; G50_C10/Vκ3 (HEK)
Question: With B1 as the binder, how does the kon [1] read?
Answer: The kon was 110000 M⁻¹ s⁻¹.

Question: What about the “Average relative IC50 (relative to humanized parent)” value (from here on “Average relative IC50”) [2] of the same binder?
Answer: Its value is 0.54.

Question: And the Kd [3]?
Answer: The Kd was 0.4 nM.

Question: And the koff [3]?
Answer: Its koff is 4.7e-05 s⁻¹.

Question: And the koff [4]?
Answer: Its koff is ≤ 1e-05 s⁻¹ and 2.34e-05 s⁻¹.

Question: What about the kon [4] of the same binder?
Answer: The kon was 399000 M⁻¹ s⁻¹ and 298000 M⁻¹ s⁻¹.

Question: What about the “IC50 (read off the curve)” value [5] of the same binder?
Answer: Its value is roughly 0.5 µg/mL.

Question: What about the “fold improvement in affinity compared to the humanized parental, on average” value [6] of the same binder?
Answer: The value was 50 fold.

Question: What about the “Average relative IC50” value [7] of the same binder?
Answer: The value was 0.89.

Question: What about the “Average relative IC50” value [8] of the same binder?
Answer: Its value is 0.9.

Question: And the “Average relative IC50” value [9]?
Answer: Its value is 0.7.

Question: And the Kd [10]?
Answer: Its Kd is 0.00066 nM.

Question: What about the kon [10] of the same binder?
Answer: The kon was 120000 M⁻¹ s⁻¹.

Question: What about the “IC50 (read off the curve)” value [11] of the same binder?
Answer: The value was roughly 0.4 µg/mL.

Question: What about the Kd [12] of the same binder?
Answer: Its Kd is 0.054 nM.

Question: And the koff [12]?
Answer: Its koff is 1.54e-05 s⁻¹.

Question: And the kon [12]?
Answer: The kon was 283000 M⁻¹ s⁻¹.

Question: And the koff [13]?
Answer: The koff was 8e-08 s⁻¹.
